According to US20200283521A1 (GRANULAR THERAPEUTICS, published 2020):

Key:
Assay in all cases: cell array, transfected fixed HEK293 cells
[1] = target: T1, EGFR (human, UniProt P00533)
T1 construct: expressed in transfected HEK293 cells
Experimental: (§1) Transfection of all plasmids was confirmed by screening for the co-encoded marker ZS green (FIG. 13A).
(§2) Primary hits (duplicate spots) were identified by analysing fluorescence (AF647 and ZsGreenl) on ImageQuant. Vectors encoding all hits were sequenced to confirm their correct identities. […] Slides were analysed as above.

[2] = target: T2, KRT19 (human, UniProt P08727)
T2 construct: expressed in transfected HEK293 cells
T2 sequence (looked up): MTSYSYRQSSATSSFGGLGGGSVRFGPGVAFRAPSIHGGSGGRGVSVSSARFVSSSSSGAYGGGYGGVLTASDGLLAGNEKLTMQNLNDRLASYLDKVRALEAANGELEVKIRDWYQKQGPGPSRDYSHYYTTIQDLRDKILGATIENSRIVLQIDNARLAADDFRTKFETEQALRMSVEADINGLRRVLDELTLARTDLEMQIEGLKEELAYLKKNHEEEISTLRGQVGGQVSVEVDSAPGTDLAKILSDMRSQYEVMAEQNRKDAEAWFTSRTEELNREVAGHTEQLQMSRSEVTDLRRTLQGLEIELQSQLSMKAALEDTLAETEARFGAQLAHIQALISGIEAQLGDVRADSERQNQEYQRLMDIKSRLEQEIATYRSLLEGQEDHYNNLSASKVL
Experimental: as §1, §2

[3] = target: T3, BAIAP2L2 (human, UniProt Q6UXY1)
T3 construct: expressed in transfected HEK293 cells
T3 sequence (looked up): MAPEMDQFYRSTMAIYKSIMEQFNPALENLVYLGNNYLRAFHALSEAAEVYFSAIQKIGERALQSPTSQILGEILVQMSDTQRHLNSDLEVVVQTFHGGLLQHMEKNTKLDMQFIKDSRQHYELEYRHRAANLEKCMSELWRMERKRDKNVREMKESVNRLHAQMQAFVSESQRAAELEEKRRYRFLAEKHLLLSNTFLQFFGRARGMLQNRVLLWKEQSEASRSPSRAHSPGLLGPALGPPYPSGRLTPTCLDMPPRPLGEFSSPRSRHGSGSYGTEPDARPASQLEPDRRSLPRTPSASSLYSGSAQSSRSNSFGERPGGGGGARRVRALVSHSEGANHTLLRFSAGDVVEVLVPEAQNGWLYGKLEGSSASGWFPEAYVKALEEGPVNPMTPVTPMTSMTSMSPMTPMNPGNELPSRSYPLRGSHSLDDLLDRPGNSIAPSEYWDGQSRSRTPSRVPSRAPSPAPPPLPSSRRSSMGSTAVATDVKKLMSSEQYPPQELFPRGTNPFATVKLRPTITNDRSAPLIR
Experimental: as §1, §2

[4] = target: T4, PSAPL1 (human, UniProt Q6NUJ1)
T4 construct: expressed in transfected HEK293 cells
T4 sequence (looked up): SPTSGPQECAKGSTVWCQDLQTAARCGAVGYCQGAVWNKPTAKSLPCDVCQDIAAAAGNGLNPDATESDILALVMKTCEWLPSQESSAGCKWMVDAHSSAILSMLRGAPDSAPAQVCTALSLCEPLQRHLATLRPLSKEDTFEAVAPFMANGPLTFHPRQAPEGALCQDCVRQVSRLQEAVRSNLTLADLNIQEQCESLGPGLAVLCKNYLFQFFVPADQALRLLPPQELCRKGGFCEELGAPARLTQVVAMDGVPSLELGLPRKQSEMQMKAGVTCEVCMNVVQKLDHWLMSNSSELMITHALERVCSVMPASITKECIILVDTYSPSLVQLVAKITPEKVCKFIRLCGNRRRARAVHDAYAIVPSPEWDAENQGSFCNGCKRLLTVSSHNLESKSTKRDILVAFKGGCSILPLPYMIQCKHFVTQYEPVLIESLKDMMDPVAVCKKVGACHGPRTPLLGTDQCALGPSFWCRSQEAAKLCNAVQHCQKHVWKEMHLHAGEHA
Experimental: as §1, §2

binding result [1]: no binding (tested: 2 µg/ml)
binding result [2]: no binding (tested: 2 µg/ml)
binding result [3]: no binding (tested: 2 µg/ml)
binding result [4]: no binding (tested: 2 µg/ml)
B1: MH1, human IgG1 (antibody, V domains shown)
VH: QVQLVQSGAEVKKPGASVKVSCKASGYTFTDYYMNWVRQAPGQGLEWMGRIYPGSGNTYYAQKFQGRVTMTRDTSTSTVYMELSSLRSEDTAVYYCARGVYYYDYWGQGTLVTVSS
VL: DIQMTQSPSSLSASVGDRVTITCRASQGIRTNLAWFQQKPGKAPKSLIYAASSLQSGVPSRFSGSGSGTDFTLTISSLQPEDFATYYCQQYNSYPRTFGGGTKVEIK
notes: IgG1; also called IgG1-MH1
